In general, Kd refers to the free concentration of one partner at which half of the binding sites on the other are occupied at equilibrium, for simple one-to-one binding. A lower Kd goes with a tighter complex. One may read the koff as a measure of how fast the partners let go of each other. A word on the kon: it is a measure of how fast the partners come together. For orientation: EC50 means the concentration that produces a half-maximal response.

Consider 1 molecule from patent US20220380446A1 (ABL BIO, published 2022).

Experiment [1] addresses T1, human α-synuclein pre-formed fibrils (Human Alpha Synuclein Pre-formed Fibrils Type II, StressMarq SPR-317) (human, UniProt P37840 1-140). As to the kind of experiment: SPR Biacore, antibody captured on anti-hFab CM3 chip, α-syn PFF analyte, single-cycle kinetics, 1:1 model. On the procedure:
(§1) The equipment used was Biacore®. Anti-hFab (Sigma, I5260-1ML) diluted in acetate buffer (pH 5.0) was immobilized on the surface of an CM3 chip (GE Healthcare) by amine coupling. […] All procedures in association and dissociation phases were done in single-cycle kinetics. A 1:1 binding model was used for fitting, and the Biacore® T200 Evaluation software was used for the evaluation.

Experiment [2] concerns the target T1, human α-synuclein pre-formed fibrils …. Description: SPR Biacore T200, antibody captured on Protein A chip, α-syn PFF analyte, 1:1 model. On the procedure: (§2) The equipment used was Biacore® (GE Healthcare, Model T200). Protein A (GE Healthcare, Cat: 29-1275-56) was used as a chip, 10 mM glycine-HCl pH 1.5 (GE Healthcare, Cat: BR-1003-54) was used as a regeneration buffer, and HBS-EP was used as a running buffer and an analyte dilution and sample dilution buffer. […] A capture phase was carried out at a contact time of 60 seconds and a flow rate of 30 μL/min was used for a stabilization period of 60 seconds, with the target resonance units (RU) of fibril set to 10 (theoretical). In an association phase, the association time was set to 60 seconds and a flow rate was set to 60 μL/min. In a dissociation phase, the dissociation time was set to 180 seconds, and a flow rate was set to 60 μL/min. In a regeneration phase, the flow rate was set to 30 μL/min, and the regeneration time was set to 60 seconds. A 1:1 binding model was used for fitting, and the Biacore® T200 Evaluation software (GE Healthcare) was used for the evaluation.
For orientation: In SPR one partner is held on a chip, and binding of the other changes the refractive index at the surface.

Experiment [3] has the same target. Description: SPR (Biacore), antibody captured on anti-hFab CM3 chip, α-syn PFF as analyte (sample PFF-2), single-cycle kinetics, 1:1 Binding fit, 25 °C; Run2. On the procedure: as §1
Experiment [4] concerns the target monomeric human α-synuclein (Active Human Recombinant Alpha Synuclein Protein Monomer type II, StressMarq … (human, UniProt P37840 1-140)). As to the kind of experiment: SPR (Biacore T200), antibody captured on Protein A chip, α-syn monomer as analyte (Monomer-4), 25 °C; Run02; number of the software's 1:1 fit printed under a sensorgram without binding response (the filing's Table 18: No-binding). On the procedure: The equipment used was Biacore® T200. The anti-α-syn monospecific antibody or the anti-α-syn/IGF1R bispecific antibody was diluted with 1×HBS-EPT. […] Each diluted monomer sample was injected at 60 μL/min onto the Protein A chip surface for 60 seconds, followed by washing with 1×HBS-EP buffer. The dissociation rate was evaluated for 180 seconds. All procedures in association/dissociation phases were done in single cycle kinetics. The chip surface was regenerated by injecting 10 mM glycine-HCl pH 1.5 (GE Healthcare) onto the chip surface for 60 seconds at 30 μL/min, removing residual α-syn monomer/antibody complex. A 1:1 binding model was used for fitting, and the Biacore® T200 Evaluation software was used for evaluation.

In experiment [5] the target is T1, human α-synuclein pre-formed fibrils …. As to the kind of experiment: sandwich ELISA, antibody coated, α-syn PFF added, 7B7-biotin detection. Here is the method: Specifically, the antibodies were diluted with PBS by six-fold serial dilution from 400 nM to 0.009 nM. The diluted antibodies were added to a 96-well plate at 100 μL/well for coating. The plate was sealed and incubated at 4° C. for 16 hours. After washing with phosphate-buffered saline with Tween® (PBS-T; 0.05% Tween® 20) five times, the plate was blocked with 5% BSA in PBS 200 μL/well at 37° C. for 2 hours. After washing with PBS-T five times, α-syn PFF (2 μg/mL, 100 μL/well in 2% BSA in PBS) was added to the plate and incubated at 37° C. for 2 hours. After washing with PBS-T five times, 7B7-biotin antibody (anti-α-syn antibody; 1 μg/mL/100 μL/well, in 2% BSA in PBS) was added and incubated at 37° C. for 2 hours. After washing with PBS-T five times, the plate was incubated with horseradish peroxidase (HRP)-bound streptavidin in PBS with 2% BSA (1:5000, 1 mg/mL stock, 20 ng/well, 100 μL/well) at 37° C. for 1 hour. After washing with PBS-T five times, 3,3′,5,5′-tetramethylbenzidine (TMB) (100 μL/well) was added and incubated at room temperature for 5 minutes. The reaction was stopped by the addition of 0.5 N H₂SO₄ (50 μL/well). Optical absorbance at 450 nm was measured by using a plate reader, with absorbance at 650 nm subtracted from the reading.

Experiment [6] shares this target. Description: SPR Biacore T200, antibody captured on Protein A chip, α-syn PFF analyte, 1:1 model. On the procedure:
as §2
This is another data set of the same source.

The target is the same in experiment [7]. As to the kind of experiment: SPR Biacore 'as described above', antibody captured, α-syn PFF analyte, 1:1 model.

B1: hu1E4(V1_VL1) x Grabody B (bispecific antibody, human IgG1, kappa)
heavy 1: not shown
heavy 2: not shown
light: DIVMTQTPLSLSVTPGQPASISCRSSQSLVHSNGNTYLHWYLQKPGQSPQLLIYKVSNRFSGVPDRFSGSGSGTDFTLKISRVEAEDVGVYYCSQSTHVPRTFGQGTKLEIKRTVAAPSVFIFPPSDEQLKSGTASVVCLLNNFYPREAKVQWKVDNALQSGNSQESVTEQDSKDSTYSLSSTLTLSKADYEKHKVYACEVTHQGLSSPVTKSFNRGEC
notes: Anti-α-syn/IGF1R bispecific; hole heavy chain (M428L) carries the anti-IGF1R scFv Grabody B at its C-terminus through a (G4S)3 linker; knob heavy chain (M428L) without scFv; also called hu1E4(V1 VL1) × Grabody B; 1E4(Ver.1_VL1) × Grabody B
As for B1, the Kd in experiment [1] was determined as 0.0379 nM; in experiment [2] it was 0.0281 nM; in experiment [6] it was 0.0293 nM; in experiment [7], 0.025 nM. Also, the koff in experiment [1] was found to be 0.000706 s⁻¹; in experiment [2], 0.000322 s⁻¹; in experiment [3] it was 0.000743 s⁻¹; in experiment [4] it was 0.537 s⁻¹; in experiment [6], 0.000423 s⁻¹; in experiment [7], 0.000345 s⁻¹. Besides, the kon in experiment [1] worked out at 1.87e+07 M⁻¹ s⁻¹; in experiment [2], 1.14e+07 M⁻¹ s⁻¹; in experiment [3], 1.83e+07 M⁻¹ s⁻¹; in experiment [4], 46900 M⁻¹ s⁻¹; in experiment [6], 1.45e+07 M⁻¹ s⁻¹; in experiment [7], 1.4e+07 M⁻¹ s⁻¹. In experiment [5], the EC50 was determined as 0.236 nM.
